# Source: patent US20100080799
# System: recombinant H2A.X (WT), N-terminal 6xHis tag
substance,measurement,value
recombinant N-terminal portion of WSTF (N-WSTF),kinase activity (in vitro kinase assay),Only N-WSTF had kinase activity
